Data as given in the supplement of paper PMC10065799, “High-throughput profiling of sequence recognition by tyrosine kinases and SH2 domains using bacterial peptide display” (eLife, 2023).

Biological target: EPHB2 (UniProt P29323)
Experiment: phosphorylation enrichment, bacterial display (enrichment ratio); higher = better substrate or ligand; peptides without Tyr show the background
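Further: 11-residue human phosphosite peptides and single-mutation variants displayed on the E. coli surface, counted by deep sequencing, each peptide's frequency after selection divided by its frequency in the unselected input library; frequency after pTyr selection over input frequency; kinase dosed for 20-30% of maximal phosphorylation in three min.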

Chain of EPHB2 (P29323 whole entry, looked up): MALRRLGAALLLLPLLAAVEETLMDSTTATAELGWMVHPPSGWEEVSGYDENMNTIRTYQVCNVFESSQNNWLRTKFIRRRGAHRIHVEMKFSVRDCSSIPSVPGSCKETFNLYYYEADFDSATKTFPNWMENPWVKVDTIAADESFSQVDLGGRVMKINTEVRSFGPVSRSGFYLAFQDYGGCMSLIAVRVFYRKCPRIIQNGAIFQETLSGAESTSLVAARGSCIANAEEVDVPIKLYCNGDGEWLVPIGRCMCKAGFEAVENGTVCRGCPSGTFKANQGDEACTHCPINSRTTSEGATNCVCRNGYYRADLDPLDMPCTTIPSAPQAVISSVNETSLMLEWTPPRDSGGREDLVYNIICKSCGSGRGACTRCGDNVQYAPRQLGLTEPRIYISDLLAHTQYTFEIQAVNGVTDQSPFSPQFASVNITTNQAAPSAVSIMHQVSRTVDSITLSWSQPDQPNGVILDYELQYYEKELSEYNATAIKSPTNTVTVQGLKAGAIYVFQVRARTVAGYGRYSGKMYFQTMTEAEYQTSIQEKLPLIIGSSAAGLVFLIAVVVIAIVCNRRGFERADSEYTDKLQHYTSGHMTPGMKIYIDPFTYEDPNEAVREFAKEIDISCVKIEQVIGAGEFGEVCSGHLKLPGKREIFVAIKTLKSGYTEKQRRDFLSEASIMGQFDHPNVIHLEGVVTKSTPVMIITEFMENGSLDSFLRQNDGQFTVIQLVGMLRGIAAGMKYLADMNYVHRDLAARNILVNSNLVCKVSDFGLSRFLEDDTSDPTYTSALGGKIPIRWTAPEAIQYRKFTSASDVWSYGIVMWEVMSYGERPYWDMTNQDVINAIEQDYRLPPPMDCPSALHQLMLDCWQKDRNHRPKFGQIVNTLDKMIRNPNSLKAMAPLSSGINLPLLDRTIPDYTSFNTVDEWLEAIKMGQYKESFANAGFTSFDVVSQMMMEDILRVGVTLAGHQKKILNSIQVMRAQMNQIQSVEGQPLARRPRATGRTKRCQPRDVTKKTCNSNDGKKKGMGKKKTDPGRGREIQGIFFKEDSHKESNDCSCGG

Sequence	phosphorylation enrichment
YCRHNYGAVES [HLA-DRB1_Y112_V114A]	0.623
LHQSTYQRFDV [SLC7A14_Y693_YF]	1.17
LIHLHYIRKDY [BBS4_Y43]	0.63
REAMEYLESKQ [BTK_Y511_C506R]	0.573
RAILNYIASKY [GSTA3_Y74]	0.795
SVGGLYRDMGA [CBX8_Y321_G317V]	0.43
FAELMYTGFWH [ASS1_Y322_V321M]	4.76
CLLHCYFSQIH [MCM3AP_Y873_R878H]	0.453
TDHLRYFDSNK [ARAP1_Y359]	0.442
KDDEKYLDVIR [MTM1_Y260]	0.49
IINENYDYLKG [NUP98_Y1664]	0.707
GGGCGYNRSSG [FUS_Y232_G230C]	0.426
NNIDFYKKTTN [FGFR2_Y657_YF]	0.397
PLDGEYFTPQI [TP53_Y327_L330P]	1.91
AIQDAYMHITS [ADCY10_Y318]	0.492
TQKLAYVELQQ [CENPF_Y700_M701V]	0.561
EVDELYREAPI [MYL12B_Y143]	0.654

Sequence	phosphorylation enrichment
RLSPEYKQNEI [GJB1_Y243]	0.555
ELTAKYLNYYR [P3H4_Y181_Q186R]	0.512
REGAKYVSHGA [ASS1_Y113]	0.4
RYVTRHIYNRE [HLA-DQB1_Y62_Y62H]	0.795
SFGESYDNSKS [MAN1B1_Y60_N59S]	0.508
LLANAYIFVVQ [L1CAM_Y418_YF]	1.13
PDMHSYMVRFN [GRIN2D_Y732_YF]	0.69
KAPPTYDTVLQ [CYP3A4_Y347]	7.86
HHLSTYTKMLF [CHST8_Y251_R247H]	0.902
NMRSTYAKLAA [SEC22B_Y193_H190R]	0.397
LASLIYNFVLF [AQP6_Y231]	4.52
VNCHQYDGLVG [ATP2A2_Y407_E412G]	0.546
AAGGRYDGLLG [HARS2_Y364_V368L]	0.415
YGIAQYCCRMG [LRRK2_Y2023]	11.2
LHQSTYQRYDV [SLC7A14_Y693]	0.53
CPTIHYNFMCN [TP53_Y234_T230P_YF]	0.596

Tested on: c-Abl (mouse)
Experiment: as above

Sequence	phosphorylation enrichment
YCRHNYGAVES [HLA-DRB1_Y112_V114A]	0.696
LHQSTYQRFDV [SLC7A14_Y693_YF]	0.838
LIHLHYIRKDY [BBS4_Y43]	0.632
REAMEYLESKQ [BTK_Y511_C506R]	1.15
RAILNYIASKY [GSTA3_Y74]	0.92
SVGGLYRDMGA [CBX8_Y321_G317V]	0.555
FAELMYTGFWH [ASS1_Y322_V321M]	3.16
CLLHCYFSQIH [MCM3AP_Y873_R878H]	0.664
TDHLRYFDSNK [ARAP1_Y359]	1.14
KDDEKYLDVIR [MTM1_Y260]	0.689
IINENYDYLKG [NUP98_Y1664]	0.649
GGGCGYNRSSG [FUS_Y232_G230C]	0.815
NNIDFYKKTTN [FGFR2_Y657_YF]	0.498
PLDGEYFTPQI [TP53_Y327_L330P]	12.9
AIQDAYMHITS [ADCY10_Y318]	0.588
TQKLAYVELQQ [CENPF_Y700_M701V]	1.03
EVDELYREAPI [MYL12B_Y143]	0.962

Sequence	phosphorylation enrichment
RLSPEYKQNEI [GJB1_Y243]	0.821
ELTAKYLNYYR [P3H4_Y181_Q186R]	0.498
REGAKYVSHGA [ASS1_Y113]	0.339
RYVTRHIYNRE [HLA-DQB1_Y62_Y62H]	0.751
SFGESYDNSKS [MAN1B1_Y60_N59S]	0.747
LLANAYIFVVQ [L1CAM_Y418_YF]	1.44
PDMHSYMVRFN [GRIN2D_Y732_YF]	0.811
KAPPTYDTVLQ [CYP3A4_Y347]	0.663
HHLSTYTKMLF [CHST8_Y251_R247H]	0.792
NMRSTYAKLAA [SEC22B_Y193_H190R]	0.453
LASLIYNFVLF [AQP6_Y231]	4.1
VNCHQYDGLVG [ATP2A2_Y407_E412G]	0.684
AAGGRYDGLLG [HARS2_Y364_V368L]	1.01
YGIAQYCCRMG [LRRK2_Y2023]	3.48
LHQSTYQRYDV [SLC7A14_Y693]	0.444
CPTIHYNFMCN [TP53_Y234_T230P_YF]	0.757

Biological target: Fes (UniProt P07332)
Sequence (P07332 whole entry, looked up): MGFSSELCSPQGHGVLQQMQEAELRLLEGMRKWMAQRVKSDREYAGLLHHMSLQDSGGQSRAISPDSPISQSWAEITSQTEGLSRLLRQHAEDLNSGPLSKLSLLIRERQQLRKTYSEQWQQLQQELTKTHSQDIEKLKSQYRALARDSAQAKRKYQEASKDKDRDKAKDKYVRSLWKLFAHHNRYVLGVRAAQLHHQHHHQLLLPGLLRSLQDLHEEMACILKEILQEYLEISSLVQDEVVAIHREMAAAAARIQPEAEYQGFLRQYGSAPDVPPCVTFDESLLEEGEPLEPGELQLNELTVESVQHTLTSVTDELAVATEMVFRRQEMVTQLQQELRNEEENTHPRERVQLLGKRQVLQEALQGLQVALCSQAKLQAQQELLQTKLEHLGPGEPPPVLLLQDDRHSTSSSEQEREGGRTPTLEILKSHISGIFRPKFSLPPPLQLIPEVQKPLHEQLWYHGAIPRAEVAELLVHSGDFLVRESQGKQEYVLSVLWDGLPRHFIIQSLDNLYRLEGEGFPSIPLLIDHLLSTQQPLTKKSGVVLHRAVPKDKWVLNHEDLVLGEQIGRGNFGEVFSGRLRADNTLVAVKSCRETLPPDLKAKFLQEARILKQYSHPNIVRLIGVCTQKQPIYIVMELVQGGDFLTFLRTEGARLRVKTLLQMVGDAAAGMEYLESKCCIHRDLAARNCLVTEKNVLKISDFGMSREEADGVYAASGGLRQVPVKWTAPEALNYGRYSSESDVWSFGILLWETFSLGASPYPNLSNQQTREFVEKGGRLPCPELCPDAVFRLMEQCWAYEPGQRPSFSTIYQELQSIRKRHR
Experiment: as above

Sequence	phosphorylation enrichment
YCRHNYGAVES [HLA-DRB1_Y112_V114A]	0.678
LHQSTYQRFDV [SLC7A14_Y693_YF]	1.32
LIHLHYIRKDY [BBS4_Y43]	1.14
REAMEYLESKQ [BTK_Y511_C506R]	1.15
RAILNYIASKY [GSTA3_Y74]	1.59
SVGGLYRDMGA [CBX8_Y321_G317V]	0.791
FAELMYTGFWH [ASS1_Y322_V321M]	1.67
CLLHCYFSQIH [MCM3AP_Y873_R878H]	1.29
TDHLRYFDSNK [ARAP1_Y359]	0.794
KDDEKYLDVIR [MTM1_Y260]	0.971
IINENYDYLKG [NUP98_Y1664]	0.871
GGGCGYNRSSG [FUS_Y232_G230C]	0.717
NNIDFYKKTTN [FGFR2_Y657_YF]	0.695
PLDGEYFTPQI [TP53_Y327_L330P]	1.34
AIQDAYMHITS [ADCY10_Y318]	0.647
TQKLAYVELQQ [CENPF_Y700_M701V]	1
EVDELYREAPI [MYL12B_Y143]	1.39

Sequence	phosphorylation enrichment
RLSPEYKQNEI [GJB1_Y243]	0.682
ELTAKYLNYYR [P3H4_Y181_Q186R]	0.748
REGAKYVSHGA [ASS1_Y113]	0.628
RYVTRHIYNRE [HLA-DQB1_Y62_Y62H]	0.777
SFGESYDNSKS [MAN1B1_Y60_N59S]	0.953
LLANAYIFVVQ [L1CAM_Y418_YF]	2.13
PDMHSYMVRFN [GRIN2D_Y732_YF]	0.931
KAPPTYDTVLQ [CYP3A4_Y347]	0.735
HHLSTYTKMLF [CHST8_Y251_R247H]	1.32
NMRSTYAKLAA [SEC22B_Y193_H190R]	0.561
LASLIYNFVLF [AQP6_Y231]	2.2
VNCHQYDGLVG [ATP2A2_Y407_E412G]	0.847
AAGGRYDGLLG [HARS2_Y364_V368L]	0.85
YGIAQYCCRMG [LRRK2_Y2023]	0.762
LHQSTYQRYDV [SLC7A14_Y693]	0.404
CPTIHYNFMCN [TP53_Y234_T230P_YF]	1.17

Biological target: Fyn (UniProt P06241)
Sequence (P06241 whole entry, looked up): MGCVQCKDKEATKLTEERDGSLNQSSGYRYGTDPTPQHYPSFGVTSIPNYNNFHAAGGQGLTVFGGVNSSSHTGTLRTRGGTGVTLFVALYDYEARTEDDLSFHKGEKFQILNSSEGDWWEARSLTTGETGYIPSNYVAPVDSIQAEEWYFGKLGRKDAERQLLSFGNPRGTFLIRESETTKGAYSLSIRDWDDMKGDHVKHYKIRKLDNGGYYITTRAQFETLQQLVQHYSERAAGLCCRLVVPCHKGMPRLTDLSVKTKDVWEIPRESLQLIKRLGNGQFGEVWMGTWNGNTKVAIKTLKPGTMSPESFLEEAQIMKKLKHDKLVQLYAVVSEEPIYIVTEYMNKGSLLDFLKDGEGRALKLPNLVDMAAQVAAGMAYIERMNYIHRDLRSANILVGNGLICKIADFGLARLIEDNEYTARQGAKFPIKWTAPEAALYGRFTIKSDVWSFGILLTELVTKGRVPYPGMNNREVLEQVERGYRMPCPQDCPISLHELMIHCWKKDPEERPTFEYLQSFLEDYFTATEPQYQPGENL
Experiment: as above

Sequence	phosphorylation enrichment
YCRHNYGAVES [HLA-DRB1_Y112_V114A]	0.416
LHQSTYQRFDV [SLC7A14_Y693_YF]	1.83
LIHLHYIRKDY [BBS4_Y43]	0.548
REAMEYLESKQ [BTK_Y511_C506R]	0.703
RAILNYIASKY [GSTA3_Y74]	0.719
SVGGLYRDMGA [CBX8_Y321_G317V]	0.408
FAELMYTGFWH [ASS1_Y322_V321M]	6.85
CLLHCYFSQIH [MCM3AP_Y873_R878H]	0.43
TDHLRYFDSNK [ARAP1_Y359]	0.428
KDDEKYLDVIR [MTM1_Y260]	0.433
IINENYDYLKG [NUP98_Y1664]	0.406
GGGCGYNRSSG [FUS_Y232_G230C]	0.422
NNIDFYKKTTN [FGFR2_Y657_YF]	0.393
PLDGEYFTPQI [TP53_Y327_L330P]	0.89
AIQDAYMHITS [ADCY10_Y318]	0.517
TQKLAYVELQQ [CENPF_Y700_M701V]	0.445
EVDELYREAPI [MYL12B_Y143]	0.654

Sequence	phosphorylation enrichment
RLSPEYKQNEI [GJB1_Y243]	0.403
ELTAKYLNYYR [P3H4_Y181_Q186R]	0.369
REGAKYVSHGA [ASS1_Y113]	0.378
RYVTRHIYNRE [HLA-DQB1_Y62_Y62H]	0.73
SFGESYDNSKS [MAN1B1_Y60_N59S]	0.466
LLANAYIFVVQ [L1CAM_Y418_YF]	0.606
PDMHSYMVRFN [GRIN2D_Y732_YF]	0.629
KAPPTYDTVLQ [CYP3A4_Y347]	2.46
HHLSTYTKMLF [CHST8_Y251_R247H]	0.989
NMRSTYAKLAA [SEC22B_Y193_H190R]	0.407
LASLIYNFVLF [AQP6_Y231]	7.62
VNCHQYDGLVG [ATP2A2_Y407_E412G]	0.48
AAGGRYDGLLG [HARS2_Y364_V368L]	0.548
YGIAQYCCRMG [LRRK2_Y2023]	0.8
LHQSTYQRYDV [SLC7A14_Y693]	0.458
CPTIHYNFMCN [TP53_Y234_T230P_YF]	0.557
